Patent publication US20210238260

Target: Factor X, P00742
Sequence (P00742 whole entry, looked up): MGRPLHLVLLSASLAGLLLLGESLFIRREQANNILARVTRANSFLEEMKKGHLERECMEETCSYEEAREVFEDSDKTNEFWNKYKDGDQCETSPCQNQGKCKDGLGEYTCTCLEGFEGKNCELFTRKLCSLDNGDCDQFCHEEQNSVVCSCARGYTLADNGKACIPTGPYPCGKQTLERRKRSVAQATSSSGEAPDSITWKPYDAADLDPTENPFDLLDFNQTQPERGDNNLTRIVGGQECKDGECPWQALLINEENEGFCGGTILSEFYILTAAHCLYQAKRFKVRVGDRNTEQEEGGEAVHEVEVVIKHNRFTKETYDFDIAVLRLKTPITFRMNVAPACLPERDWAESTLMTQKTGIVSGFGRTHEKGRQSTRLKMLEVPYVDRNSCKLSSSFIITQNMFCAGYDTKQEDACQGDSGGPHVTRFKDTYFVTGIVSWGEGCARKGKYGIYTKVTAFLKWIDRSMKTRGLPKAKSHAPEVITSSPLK

B1: FIXa Y155F/K247N/N249S/R318Y/R338E/R403E (protein)
chain 1: YNSGKLEEFVQGNLERECMEEKCSFEEAREVFENTERTTEFWKQYVDGDQCESNPCLNGGSCKDDINSYECWCPFGFEGKNCELDVTCNIKNGRCEQFCKNSADNKVVCSCTEGYRLAENQKSCEPAVPFPCGRVSVSQTSKLTR
chain 2: VVGGEDAKPGQFPWQVVLNGKVDAFCGGSIVNEKWIVTAAHCVETGVKITVVAGEHNIEETEHTEQNRSVIRIIPHHNYNAAINKYNHDIALLELDEPLVLNSYVTPICIADKEYTNIFLKFGSGYVSGWGRVFHKGYSALVLQYLRVPLVDRATCLESTKFTIYNNMFCAGFHEGGRDSCQGDSGGPHVTEVEGTSFLTGIISWGEECAMKGKYGIYTKVSEYVNWIKEKTKLT
- KM (FX activation by FIXa in Xase complex with FVIIIa, PC/PS vesicles, Ca2+): 0.0673 µM

B2: FIXa Y155F/K247N/N249S/R318Y/R403E/E410N (protein)
chain 1: YNSGKLEEFVQGNLERECMEEKCSFEEAREVFENTERTTEFWKQYVDGDQCESNPCLNGGSCKDDINSYECWCPFGFEGKNCELDVTCNIKNGRCEQFCKNSADNKVVCSCTEGYRLAENQKSCEPAVPFPCGRVSVSQTSKLTR
chain 2: VVGGEDAKPGQFPWQVVLNGKVDAFCGGSIVNEKWIVTAAHCVETGVKITVVAGEHNIEETEHTEQNRSVIRIIPHHNYNAAINKYNHDIALLELDEPLVLNSYVTPICIADKEYTNIFLKFGSGYVSGWGRVFHKGYSALVLQYLRVPLVDRATCLRSTKFTIYNNMFCAGFHEGGRDSCQGDSGGPHVTEVEGTSFLTGIISWGEECAMKGKYGIYTKVSEYVNWIKNKTKLT
- KM (FX activation by FIXa in Xase complex with FVIIIa, PC/PS vesicles, Ca2+): 0.125 µM

B3: FIXa-R338E/T343R/E410N (protein)
chain 1: YNSGKLEEFVQGNLERECMEEKCSFEEAREVFENTERTTEFWKQYVDGDQCESNPCLNGGSCKDDINSYECWCPFGFEGKNCELDVTCNIKNGRCEQFCKNSADNKVVCSCTEGYRLAENQKSCEPAVPFPCGRVSVSQTSKLTR
chain 2: VVGGEDAKPGQFPWQVVLNGKVDAFCGGSIVNEKWIVTAAHCVETGVKITVVAGEHNIEETEHTEQKRNVIRIIPHHNYNAAINKYNHDIALLELDEPLVLNSYVTPICIADKEYTNIFLKFGSGYVSGWGRVFHKGRSALVLQYLRVPLVDRATCLESTKFRIYNNMFCAGFHEGGRDSCQGDSGGPHVTEVEGTSFLTGIISWGEECAMKGKYGIYTKVSRYVNWIKNKTKLT
- KM: 0.0355 µM

B4: FIXa Y155F/K247N/N249S/R338E/R403E/E410N (protein)
chain 1: YNSGKLEEFVQGNLERECMEEKCSFEEAREVFENTERTTEFWKQYVDGDQCESNPCLNGGSCKDDINSYECWCPFGFEGKNCELDVTCNIKNGRCEQFCKNSADNKVVCSCTEGYRLAENQKSCEPAVPFPCGRVSVSQTSKLTR
chain 2: VVGGEDAKPGQFPWQVVLNGKVDAFCGGSIVNEKWIVTAAHCVETGVKITVVAGEHNIEETEHTEQNRSVIRIIPHHNYNAAINKYNHDIALLELDEPLVLNSYVTPICIADKEYTNIFLKFGSGYVSGWGRVFHKGRSALVLQYLRVPLVDRATCLESTKFTIYNNMFCAGFHEGGRDSCQGDSGGPHVTEVEGTSFLTGIISWGEECAMKGKYGIYTKVSEYVNWIKNKTKLT
- KM (FX activation by FIXa in Xase complex with FVIIIa, PC/PS vesicles, Ca2+): 0.0487 µM

B5: FIXa K247N/N249S/R338E/R403E/E410N (protein)
chain 1: YNSGKLEEFVQGNLERECMEEKCSFEEAREVFENTERTTEFWKQYVDGDQCESNPCLNGGSCKDDINSYECWCPFGFEGKNCELDVTCNIKNGRCEQFCKNSADNKVVCSCTEGYRLAENQKSCEPAVPFPCGRVSVSQTSKLTR
chain 2: VVGGEDAKPGQFPWQVVLNGKVDAFCGGSIVNEKWIVTAAHCVETGVKITVVAGEHNIEETEHTEQNRSVIRIIPHHNYNAAINKYNHDIALLELDEPLVLNSYVTPICIADKEYTNIFLKFGSGYVSGWGRVFHKGRSALVLQYLRVPLVDRATCLESTKFTIYNNMFCAGFHEGGRDSCQGDSGGPHVTEVEGTSFLTGIISWGEECAMKGKYGIYTKVSEYVNWIKNKTKLT
- KM (FX activation by FIXa in Xase complex with FVIIIa, PC/PS vesicles, Ca2+): 0.025 µM

B6: FIXa R318Y/R338E/T343R/E410N (protein)
chain 1: YNSGKLEEFVQGNLERECMEEKCSFEEAREVFENTERTTEFWKQYVDGDQCESNPCLNGGSCKDDINSYECWCPFGFEGKNCELDVTCNIKNGRCEQFCKNSADNKVVCSCTEGYRLAENQKSCEPAVPFPCGRVSVSQTSKLTR
chain 2: VVGGEDAKPGQFPWQVVLNGKVDAFCGGSIVNEKWIVTAAHCVETGVKITVVAGEHNIEETEHTEQKRNVIRIIPHHNYNAAINKYNHDIALLELDEPLVLNSYVTPICIADKEYTNIFLKFGSGYVSGWGRVFHKGYSALVLQYLRVPLVDRATCLESTKFRIYNNMFCAGFHEGGRDSCQGDSGGPHVTEVEGTSFLTGIISWGEECAMKGKYGIYTKVSRYVNWIKNKTKLT
- KM (FX activation by FIXa in Xase complex with FVIIIa, PC/PS vesicles, Ca2+): 0.0164 µM

B7: FIXa R338E/T343R/R403E/E410N (protein)
chain 1: YNSGKLEEFVQGNLERECMEEKCSFEEAREVFENTERTTEFWKQYVDGDQCESNPCLNGGSCKDDINSYECWCPFGFEGKNCELDVTCNIKNGRCEQFCKNSADNKVVCSCTEGYRLAENQKSCEPAVPFPCGRVSVSQTSKLTR
chain 2: VVGGEDAKPGQFPWQVVLNGKVDAFCGGSIVNEKWIVTAAHCVETGVKITVVAGEHNIEETEHTEQKRNVIRIIPHHNYNAAINKYNHDIALLELDEPLVLNSYVTPICIADKEYTNIFLKFGSGYVSGWGRVFHKGRSALVLQYLRVPLVDRATCLESTKFRIYNNMFCAGFHEGGRDSCQGDSGGPHVTEVEGTSFLTGIISWGEECAMKGKYGIYTKVSEYVNWIKNKTKLT
- KM (FX activation by FIXa in Xase complex with FVIIIa, PC/PS vesicles, Ca2+): 0.0347 µM

B8: FIXa-K228N/R338E/R403E (mature FIX numbering) (protein)
chain 1: YNSGKLEEFVQGNLERECMEEKCSFEEAREVFENTERTTEFWKQYVDGDQCESNPCLNGGSCKDDINSYECWCPFGFEGKNCELDVTCNIKNGRCEQFCKNSADNKVVCSCTEGYRLAENQKSCEPAVPFPCGRVSVSQTSKLTR
chain 2: VVGGEDAKPGQFPWQVVLNGKVDAFCGGSIVNEKWIVTAAHCVETGVNITVVAGEHNIEETEHTEQKRNVIRIIPHHNYNAAINKYNHDIALLELDEPLVLNSYVTPICIADKEYTNIFLKFGSGYVSGWGRVFHKGRSALVLQYLRVPLVDRATCLESTKFTIYNNMFCAGFHEGGRDSCQGDSGGPHVTEVEGTSFLTGIISWGEECAMKGKYGIYTKVSEYVNWIKEKTKLT
- % of WT kcat/KM: 108%
- kcat/KM: 4.8e+07 M⁻¹ s⁻¹

B9: FIXa Y155F/R318Y/R338E/T343R/R403E (protein)
chain 1: YNSGKLEEFVQGNLERECMEEKCSFEEAREVFENTERTTEFWKQYVDGDQCESNPCLNGGSCKDDINSYECWCPFGFEGKNCELDVTCNIKNGRCEQFCKNSADNKVVCSCTEGYRLAENQKSCEPAVPFPCGRVSVSQTSKLTR
chain 2: VVGGEDAKPGQFPWQVVLNGKVDAFCGGSIVNEKWIVTAAHCVETGVKITVVAGEHNIEETEHTEQKRNVIRIIPHHNYNAAINKYNHDIALLELDEPLVLNSYVTPICIADKEYTNIFLKFGSGYVSGWGRVFHKGYSALVLQYLRVPLVDRATCLESTKFRIYNNMFCAGFHEGGRDSCQGDSGGPHVTEVEGTSFLTGIISWGEECAMKGKYGIYTKVSEYVNWIKEKTKLT
- KM (FX activation by FIXa in Xase complex with FVIIIa, PC/PS vesicles, Ca2+): 0.034 µM

B10: FIXa Y155F/R318Y/R338E/T343R/E410N (protein)
chain 1: YNSGKLEEFVQGNLERECMEEKCSFEEAREVFENTERTTEFWKQYVDGDQCESNPCLNGGSCKDDINSYECWCPFGFEGKNCELDVTCNIKNGRCEQFCKNSADNKVVCSCTEGYRLAENQKSCEPAVPFPCGRVSVSQTSKLTR
chain 2: VVGGEDAKPGQFPWQVVLNGKVDAFCGGSIVNEKWIVTAAHCVETGVKITVVAGEHNIEETEHTEQKRNVIRIIPHHNYNAAINKYNHDIALLELDEPLVLNSYVTPICIADKEYTNIFLKFGSGYVSGWGRVFHKGYSALVLQYLRVPLVDRATCLESTKFRIYNNMFCAGFHEGGRDSCQGDSGGPHVTEVEGTSFLTGIISWGEECAMKGKYGIYTKVSRYVNWIKNKTKLT
- KM (FX activation by FIXa in Xase complex with FVIIIa, PC/PS vesicles, Ca2+): 0.0256 µM

B11: FIXa K247N/N249S/R318Y/R338E/R403E (protein)
chain 1: YNSGKLEEFVQGNLERECMEEKCSFEEAREVFENTERTTEFWKQYVDGDQCESNPCLNGGSCKDDINSYECWCPFGFEGKNCELDVTCNIKNGRCEQFCKNSADNKVVCSCTEGYRLAENQKSCEPAVPFPCGRVSVSQTSKLTR
chain 2: VVGGEDAKPGQFPWQVVLNGKVDAFCGGSIVNEKWIVTAAHCVETGVKITVVAGEHNIEETEHTEQNRSVIRIIPHHNYNAAINKYNHDIALLELDEPLVLNSYVTPICIADKEYTNIFLKFGSGYVSGWGRVFHKGYSALVLQYLRVPLVDRATCLESTKFTIYNNMFCAGFHEGGRDSCQGDSGGPHVTEVEGTSFLTGIISWGEECAMKGKYGIYTKVSEYVNWIKEKTKLT
- KM (FX activation by FIXa in Xase complex with FVIIIa, PC/PS vesicles, Ca2+): 0.0536 µM

B12: FIXa Y155F/R318Y/T343R/R403E/E410N (protein)
chain 1: YNSGKLEEFVQGNLERECMEEKCSFEEAREVFENTERTTEFWKQYVDGDQCESNPCLNGGSCKDDINSYECWCPFGFEGKNCELDVTCNIKNGRCEQFCKNSADNKVVCSCTEGYRLAENQKSCEPAVPFPCGRVSVSQTSKLTR
chain 2: VVGGEDAKPGQFPWQVVLNGKVDAFCGGSIVNEKWIVTAAHCVETGVKITVVAGEHNIEETEHTEQKRNVIRIIPHHNYNAAINKYNHDIALLELDEPLVLNSYVTPICIADKEYTNIFLKFGSGYVSGWGRVFHKGYSALVLQYLRVPLVDRATCLRSTKFRIYNNMFCAGFHEGGRDSCQGDSGGPHVTEVEGTSFLTGIISWGEECAMKGKYGIYTKVSEYVNWIKNKTKLT
- KM (FX activation by FIXa in Xase complex with FVIIIa, PC/PS vesicles, Ca2+): 0.034 µM

B13: FIXa R318Y/R338E/T343R/R403E (protein)
chain 1: YNSGKLEEFVQGNLERECMEEKCSFEEAREVFENTERTTEFWKQYVDGDQCESNPCLNGGSCKDDINSYECWCPFGFEGKNCELDVTCNIKNGRCEQFCKNSADNKVVCSCTEGYRLAENQKSCEPAVPFPCGRVSVSQTSKLTR
chain 2: VVGGEDAKPGQFPWQVVLNGKVDAFCGGSIVNEKWIVTAAHCVETGVKITVVAGEHNIEETEHTEQKRNVIRIIPHHNYNAAINKYNHDIALLELDEPLVLNSYVTPICIADKEYTNIFLKFGSGYVSGWGRVFHKGYSALVLQYLRVPLVDRATCLESTKFRIYNNMFCAGFHEGGRDSCQGDSGGPHVTEVEGTSFLTGIISWGEECAMKGKYGIYTKVSEYVNWIKEKTKLT
- KM (FX activation by FIXa in Xase complex with FVIIIa, PC/PS vesicles, Ca2+): 0.0443 µM

B14: FIXa K247N/N249S/R318Y/R403E/E410N (protein)
chain 1: YNSGKLEEFVQGNLERECMEEKCSFEEAREVFENTERTTEFWKQYVDGDQCESNPCLNGGSCKDDINSYECWCPFGFEGKNCELDVTCNIKNGRCEQFCKNSADNKVVCSCTEGYRLAENQKSCEPAVPFPCGRVSVSQTSKLTR
chain 2: VVGGEDAKPGQFPWQVVLNGKVDAFCGGSIVNEKWIVTAAHCVETGVKITVVAGEHNIEETEHTEQNRSVIRIIPHHNYNAAINKYNHDIALLELDEPLVLNSYVTPICIADKEYTNIFLKFGSGYVSGWGRVFHKGYSALVLQYLRVPLVDRATCLRSTKFTIYNNMFCAGFHEGGRDSCQGDSGGPHVTEVEGTSFLTGIISWGEECAMKGKYGIYTKVSEYVNWIKNKTKLT
- KM (FX activation by FIXa in Xase complex with FVIIIa, PC/PS vesicles, Ca2+): 0.111 µM
